Experiments:
[1] = molecular target: recombinant FIPV-UU4 S protein (ectodomain of the spike protein of serotype I feline infectious peritonitis virus strain UU4, fused with the trimerization domain of T4 fibritin) (feline infectious peritonitis virus, serotype I, strain UU4 | bacteriophage T4); test: cryo-EM structure
[2] = molecular target: recombinant FIPV-UU4 S protein (ectodomain of the spike protein of serotype I feline infectious peritonitis virus strain UU4, fused with the trimerization domain of T4 fibritin) (feline infectious peritonitis virus, serotype I, strain UU4 | bacteriophage T4); test: native gel or EMSA

With “recombinant FIPV-UU4 S protein (ectodomain of the spike protein of serotype I feline infectious peritonitis virus strain UU4, fused with the trimerization domain of T4 fibritin) (natural protein)” the stoichiometry N [1] was 3 and the stoichiometry N [2] was 3.

Source: article PMC6983407
